Laboratory results published in PMC10896721.

Columns and labels:
[1] = target: T1, human GIPR (glucose-dependent insulinotropic polypeptide receptor) (human) (UniProt P48546)
T1 sequence: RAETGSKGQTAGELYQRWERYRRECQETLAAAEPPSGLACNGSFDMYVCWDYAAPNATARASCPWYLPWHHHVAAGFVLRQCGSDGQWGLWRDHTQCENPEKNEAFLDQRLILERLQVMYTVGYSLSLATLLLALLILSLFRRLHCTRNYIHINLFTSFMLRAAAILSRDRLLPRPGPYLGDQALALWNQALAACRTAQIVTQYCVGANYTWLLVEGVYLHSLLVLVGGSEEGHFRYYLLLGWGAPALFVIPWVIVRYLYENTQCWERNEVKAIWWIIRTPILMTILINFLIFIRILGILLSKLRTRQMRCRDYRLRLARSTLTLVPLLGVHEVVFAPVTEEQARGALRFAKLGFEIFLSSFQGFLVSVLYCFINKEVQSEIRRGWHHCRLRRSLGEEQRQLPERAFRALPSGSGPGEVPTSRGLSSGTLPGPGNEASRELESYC

[2] = target: cynomolgus monkey GLP-1R (cynomolgus monkey)
[3] = target: human GLP-1R (glucagon-like peptide-1 receptor) (human) (UniProt P43220)
mouse GLP-1R (mouse) = mouse GLP-1R (mouse) (UniProt O35659)
Chain of UniProt O35659 (O35659 22-463): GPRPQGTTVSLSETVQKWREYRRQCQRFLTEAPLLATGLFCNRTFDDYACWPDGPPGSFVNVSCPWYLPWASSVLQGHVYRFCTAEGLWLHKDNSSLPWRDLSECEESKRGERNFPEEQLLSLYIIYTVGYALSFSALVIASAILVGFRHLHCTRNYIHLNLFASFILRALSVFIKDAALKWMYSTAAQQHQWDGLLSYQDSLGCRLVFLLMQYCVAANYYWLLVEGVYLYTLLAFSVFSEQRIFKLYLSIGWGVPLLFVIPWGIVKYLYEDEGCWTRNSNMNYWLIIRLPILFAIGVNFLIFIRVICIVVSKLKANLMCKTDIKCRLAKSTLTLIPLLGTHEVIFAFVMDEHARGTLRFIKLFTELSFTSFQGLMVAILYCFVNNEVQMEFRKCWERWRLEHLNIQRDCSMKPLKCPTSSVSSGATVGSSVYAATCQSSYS

Chain of AMG 133 (maridebart cafraglutide) (VH): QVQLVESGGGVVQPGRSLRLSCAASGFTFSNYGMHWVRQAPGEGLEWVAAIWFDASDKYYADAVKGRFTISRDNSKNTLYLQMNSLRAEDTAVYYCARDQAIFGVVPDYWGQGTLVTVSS
Chain of AMG 133 (maridebart cafraglutide) (VL): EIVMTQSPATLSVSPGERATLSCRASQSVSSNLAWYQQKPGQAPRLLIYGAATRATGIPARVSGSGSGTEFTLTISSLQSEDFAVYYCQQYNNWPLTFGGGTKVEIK
Chain of UniProt P43220 (P43220 24-463): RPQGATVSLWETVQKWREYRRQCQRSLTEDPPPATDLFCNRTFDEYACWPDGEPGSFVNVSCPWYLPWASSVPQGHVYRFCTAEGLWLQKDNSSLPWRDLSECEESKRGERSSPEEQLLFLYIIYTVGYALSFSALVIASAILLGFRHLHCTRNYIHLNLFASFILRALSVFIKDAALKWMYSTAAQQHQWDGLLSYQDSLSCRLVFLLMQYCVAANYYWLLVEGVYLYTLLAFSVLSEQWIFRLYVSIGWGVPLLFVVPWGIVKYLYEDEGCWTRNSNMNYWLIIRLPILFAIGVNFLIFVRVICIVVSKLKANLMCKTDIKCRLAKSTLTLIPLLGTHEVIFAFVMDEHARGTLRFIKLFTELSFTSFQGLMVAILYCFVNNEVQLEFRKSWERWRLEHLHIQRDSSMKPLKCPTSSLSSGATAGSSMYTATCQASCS

| Substance | EC50 of cAMP accumulation in HEK 293T cells expressing human GIPR [1] [nM] | EC50 of cAMP accumulation in CHO-AM1D cells expressing cynomolgus monkey GLP-1R [2] [nM] | EC50 of cAMP accumulation in CHO-K1 cells expressing human GLP-1R [3] [nM] | EC50 of cAMP accumulation in CHO-K1 cells expressing mouse GLP-1R (mouse GLP-1R (mouse)) [nM] |
| --- | --- | --- | --- | --- |
| Native GIP (glucose-dependent insulinotropic polypeptide) (from UniProt P09681 52-93) (ligand) | 0.0066 | – | – | – |
| AMG 133 (maridebart cafraglutide) | – | 0.0057 | 0.0244 | 0.123 |
